Laboratory results: US11447754B2, “In vitro methods of chemical conversion using non-stereospecific glutathione lyases” (WISCONSIN ALUMNI RESEARCH FOUNDATION, priority 2017, dated 2022)
Changes are numbered by the printed parent chain. In names and notes the source's numbering stands.

How the values were obtained:
[1] = substrate: COc1cc(C(=O)[C@H](CO)SC[C@H](NC(=O)CC[C@H](N)C(=O)O)C(=O)NCC(=O)O)ccc1O; experiment: Kinetics of GS-HPV cleavage into HPV by ecYghU; format: biochemical, Escherichia coli DH5α; details: other: GS-HPV into HPV, 195 nM enzyme, GSH, pH 8.5, 25° C.
Description: (§1) Enzyme purifications. Genes Saro_2595, E. coli yghU, E. coli yfcG, and SLG_04120 from Sphingobium sp. SYK-6 (codon-optimized for expression in E. coli) were individually cloned into plasmid pVP302K (Gall and Ralph et al. 2014) so that transcripts from the plasmids would be translated into proteins containing a His8-tag connected to the N-terminus via a tobacco etch virus (TEV) protease recognition site. Recombinant proteins were expressed in E. coli B834 (Wood 1966, Doherty et al. 1995) containing plasmid pRARE2 (Novagen, Madison, Wis.) grown for ˜24 h at 27° C. in ZYM-5052 Autoinduction Medium (Studier 2005) containing kanamycin and chloramphenicol. Recombinant proteins were purified essentially as described previously (Gall and Kim et al. 2014); see below for modifications to the procedure. After removal of His8-tags using TEV protease, recombinant proteins retained a Ser-Ala-Ile-Ala-Gly-peptide on their N-termini, derived from the linker between the protein and the TEV protease recognition site. Recombinant LigE and LigF1 from N. aromaticivorans were purified as previously described (Gall and Ralph et al. 2014).
(§2) Kinetics analysis of GS-HPV cleavage. The Reaction Buffer (RB) consisted of 25 mM Tris-HCl (pH 8.5) and 25 mM NaCl. The β(R)- and β(S)-stereoisomers of GS-HPV were separately generated by incubating racemic MPHPV (0.46 mM) in RB with 5 mM reduced glutathione (GSH) and either 38 μg/mL LigF1 or 36 μg/mL LigE, respectively, for several h. This sample, containing a single GS-HPV stereoisomer, guaiacol, and the unreacted MPHPV stereoisomer, was diluted with RB to achieve the desired concentration of GS-HPV for the time course reaction (0.005, 0.011, 0.022, 0.096, or 0.193 mM). An additional 5 mM GSH (dissolved in RB) was added prior to initiation of each time course. At time zero, 100 μL of the indicated enzyme sample (resuspended in RB) was combined with 1800 μL of the diluted GS-HPV reaction mixture to achieve final concentrations of 8 nM NaGSTNu, 195 nM ecYghU, 195 nM ecYfcG, or 47 nM (for β(R)-GS-HPV reactions) or 18 nM (for β(S)-GS-HPV reactions) SYK6GSTNu. Assays were performed at 25° C., and at specified time points, 300 μL of the reaction was removed and combined with 100 μL 1 M HCl (Acros Organics; Geel, Belgium) to stop the reaction before HPLC analysis to quantify HPV formed.
(§3) HPLC analysis. After extracellular aromatics were identified using LC-MS, routine analysis and quantification of aromatics were performed using an Ultra AQ C18 5 μm column (Restek, Bellefonte, Pa.) attached to a System Gold HPLC (Beckman Coulter, Brea, Calif.) with running buffers and chromatography conditions described in FIG. 14. The eluent was analyzed for light absorbance between 191 and 600 nm, and absorbances at 280 nm were used for quantification of aromatic metabolites by comparing peak areas to those of standards (retention times of measured metabolites are shown in FIG. 15).

[2] = substrate: COc1cc(C(=O)[C@@H](CO)SC[C@H](NC(=O)CC[C@H](N)C(=O)O)C(=O)NCC(=O)O)ccc1O; experiment: Kinetics of GS-HPV cleavage into HPV by ecYghU; format: biochemical, Escherichia coli DH5α; details: other: GS-HPV into HPV, 195 nM enzyme, GSH, pH 8.5, 25° C.
Description: as §1, §2, §3

[3] = Kinetics of GS-HPV cleavage, comparisons between enzymes over both stereoisomers; format: biochemical
Experimental: as §2, §3

[4] = substrate: COc1cc(C(=O)[C@H](CO)SC[C@H](NC(=O)CC[C@H](N)C(=O)O)C(=O)NCC(=O)O)ccc1O; experiment: Kinetics of GS-HPV cleavage into HPV by ecYfcG; format: biochemical, Escherichia coli DH5α; details: other: GS-HPV into HPV, 195 nM enzyme, GSH, pH 8.5, 25° C.
Description: as §1, §2, §3

[5] = substrate: COc1cc(C(=O)[C@@H](CO)SC[C@H](NC(=O)CC[C@H](N)C(=O)O)C(=O)NCC(=O)O)ccc1O; experiment: Kinetics of GS-HPV cleavage into HPV by ecYfcG; format: biochemical, Escherichia coli DH5α; details: other: GS-HPV into HPV, 195 nM enzyme, GSH, pH 8.5, 25° C.
Description: as §1, §2, §3

[6] = substrate: COc1cc(C(=O)[C@H](CO)SC[C@H](NC(=O)CC[C@H](N)C(=O)O)C(=O)NCC(=O)O)ccc1O; experiment: Kinetics of GS-HPV cleavage into HPV by NaGSTNu; format: biochemical, Novosphingobium aromaticivorans DSM 12444; details: other: GS-HPV into HPV, 8 nM enzyme, GSH, pH 8.5, 25° C.
Description: as §1, §2, §3

[7] = substrate: COc1cc(C(=O)[C@@H](CO)SC[C@H](NC(=O)CC[C@H](N)C(=O)O)C(=O)NCC(=O)O)ccc1O; experiment: Kinetics of GS-HPV cleavage into HPV by NaGSTNu; format: biochemical, Novosphingobium aromaticivorans DSM 12444; details: other: GS-HPV into HPV, 8 nM enzyme, GSH, pH 8.5, 25° C.
Description: as §1, §2, §3

[8] = substrate: COc1cc(C(=O)[C@@H](CO)Oc2ccccc2OC)ccc1O; experiment: Kinetics of the enzymatic cleavage of β(R)-MPHPV by BaeA (2:S14A/3:S15A); format: biochemical, Novosphingobium aromaticivorans; details: other: β(R)-MPHPV into GS-HPV, 24 nM dimeric enzyme, 5 mM GSH, pH 8.0, 25° C.
Experimental: To generate mutant […], pVP302K/2873-H2872(S14A) was amplified by kinase phosphorylated primers “Saro2873-S15A_R” and “Saro2873-S15A_F”. The linear fragment was circularized using T4 DNA ligase to generate plasmid pVP302K/2873(S15A)-H2872(S14A).
(§4) Expression and purification of recombinant enzymes. Recombinant proteins were expressed using the plasmids described above in E. coli B834 containing plasmid pRARE2 (Novagen) grown for ˜25 hours at 25° C. in ZYM-5052 Autoinduction Medium containing kanamycin and chloramphenicol. Recombinant proteins were purified using a Ni^2+-NTA column as described in Example 1 above, except using gravity-flow columns instead of an FPLC system. After removal of His8-tags using Tev protease, recombinant proteins retained a Ser-Ala-Ile-Ala-Gly-peptide on their N-termini, derived from the linker between the protein and the Tev protease recognition site. Recombinant LigF1 was purified as previously described (Gall and Ralph et al. 2014).
Kinetics of the enzymatic cleavage of β(R)-MPHPV. Various concentrations of racemic MPHPV (equal amounts of the β(S)- and β(R)-stereoisomers) were combined with 5 mM GSH in RB. At time zero, 100 μL of a given enzyme in RB+5 mM GSH was combined with 1000 μL of the racemic MPHPV/GSH sample at 25° C. (both samples were equilibrated to 25° C. before mixing). Final concentrations of β(R)-MPHPV in each reaction were 0.0045, 0.010, 0.017, 0.068, or 0.13 mM. […] At specified time points, 200 μL of a reaction was removed and combined with 40 μL of 1 M HCl (Acros Organics) to stop the reaction before HPLC analysis to quantify GS-HPV formed. […]
(§5) HPLC analysis. Analysis and quantification of aromatic compounds were performed using an Ultra AQ C18 5 μm column (Restek) attached to a System Gold HPLC (Beckman Coulter) with running buffers and methods described in Example 1. The eluent was analyzed for light absorbance between 191 and 600 nm, and absorbances at 280 nm were used for quantification of aromatic metabolites by comparing peak areas to those of standards.

[9] = substrate: COc1cc(C(=O)[C@@H](CO)Oc2ccccc2OC)ccc1O; experiment: Kinetics of the enzymatic cleavage of β(R)-MPHPV by BaeA (3:N14A); format: biochemical, Novosphingobium aromaticivorans; details: other: β(R)-MPHPV into GS-HPV, 98 nM dimeric enzyme, 5 mM GSH, pH 8.0, 25° C.
Description: To generate mutant 2:S14A, pVP302K/2873-H2872 was amplified by kinase phosphorylated primers “Saro2872-S14A_R” and “Saro2872-S14A_F”. To generate mutant 3:S15A, pVP302K/H2873-2872 was amplified by kinase phosphorylated primers “Saro2873-S15A_R” and “Saro2873-S15A_F”. To generate mutant 3:N14A, pVP302K/2873-H2872 was amplified by kinase phosphorylated primers “Saro2873-S15A_R” and “Saro2873-N14A_F”. These linear fragments were separately circularized using T4 DNA ligase to generate plasmids pVP302K/2873-H2872(S14A), pVP302K/H2873(S15A)-2872, and pVP302K/2873(N14A)-H2872, respectively.
as §4
Kinetics of the enzymatic cleavage of β(R)-MPHPV. Various concentrations of racemic MPHPV (equal amounts of the β(S)- and β(R)-stereoisomers) were combined with 5 mM GSH in RB. […] At specified time points, 200 μL of a reaction was removed and combined with 40 μL of 1 M HCl (Acros Organics) to stop the reaction before HPLC analysis to quantify GS-HPV formed. […]
as §5

B1: Escherichia coli ecYghU, Nu-class glutathione-S-transferase, wild type, SEQ ID NO:26; recombinant, residues 21-313 of SEQ ID NO:28 (Escherichia coli K-12) (protein)
chain: MTDNTYQPAKVWTWDKSAGGAFANINRPVSGPTHEKTLPVGKHPLQLYSLGTPNGQKVTIMLEELLALGVTGAEYDAWLIRIGDGDQFSSGFVEVNPNSKIPALRDHTHNPPIRVFESGSILLYLAEKFGYFLPQDLAKRTETMNWLFWLQGAAPFLGGGFGHFYHYAPVKIEYAINRFTMEAKRLLDVLDKQLAQHKFVAGDEYTIADMAIWPWFGNVVLGGVYDAAEFLDAGSYKHVQRWAKEVGERPAVKRGRIVNRTNGPLNEQLHERHDASDFETNTEDKRQG
notes: E. coli B834
Km [1]: 12 µM
kcat [1]: 0.29 s⁻¹
kcat/Km [1]: 24000 M⁻¹ s⁻¹
Km [2]: 28 µM
kcat [2]: 0.43 s⁻¹
kcat/Km [2]: 16000 M⁻¹ s⁻¹
kcat/KM with GS-HPV, fold lower than those of NaGSTNu [3]: ~100 fold

B2: Escherichia coli ecYfcG, Nu-class glutathione-S-transferase, wild type, SEQ ID NO:30 (Escherichia coli K-12) (protein)
chain: MIDLYFAPTPNGHKITLFLEEAELDYRLIKVDLGKGGQFRPEFLRISPNNKIPAIVDHSPADGGEPLSLFESGAILLYLAEKTGLFLSHETRERAATLQWLFWQVGGLGPMLGQNHHFNHAAPQTIPYAIERYQVETQRLYHVLNKRLENSPWLGGENYSIADIACWPWVNAWTRQRIDLAMYPAVKNWHERIRSRPATGQALLKAQLGDERSDS
notes: E. coli B834
Km [4]: 130 µM
kcat [4]: 0.017 s⁻¹
kcat/Km [4]: 140 M⁻¹ s⁻¹
Km [5]: 160 µM
kcat [5]: 0.04 s⁻¹
kcat/Km [5]: 200 M⁻¹ s⁻¹

B3: ecYfcG: Nu-class GST from Escherichia coli DH5a, SEQ ID NO:30 (protein, listed as Escherichia coli)
chain: B2 chain
KM, fold higher than those of ecYghU [3]: ~10 fold
kcat, fold lower than those of ecYghU [3]: ~10 fold
kcat/KM with GS-HPV, fold lower than for ecYghU [3]: ~100 fold
kcat/KM with GS-HPV, fold lower than those of NaGSTNu [3]: ~10^4 fold

B4: Novosphingobium aromaticivorans DSM 12444 NaGSTNu (Saro_2595), Nu-class glutathione-S-transferase, wild type, SEQ ID NO:18; recombinant, residues 21-313 of SEQ … (protein)
chain: MSSEYVPPKVWKWDKANGGAFASVNRPVAGPTSERELPVGKHPFQVYSLGTPNGQKATIMLEELLQLGFSEAEYDAWLIKIFEGDQFTSGFVDINPNSKIPAMVDRSGPEPFRVFESGAILMHLAEKFGVFLPTSGPARAECLSWLFWQVGSAPFIGGGFGHFYNYAPIKIEYAIDRYAMETKRLFDVANRRLAESRYLAGDEYTIADLATYTWFGNIYRGEAYGEAATFLSMHEYEHVGRWVGEIDARPGVLRGRLVNSSKGLAERHDASDFDALPPESLQAIVKGF
notes: E. coli B834
Km [6]: 8 µM
kcat [6]: 57 s⁻¹
kcat/Km [6]: 8e+06 M⁻¹ s⁻¹
Km [7]: 40 µM
kcat [7]: 80 s⁻¹
kcat/Km [7]: 1.9e+06 M⁻¹ s⁻¹

B5: Novosphingobium aromaticivorans BaeA (Saro_2872/Saro_2873 heterodimer, SEQ ID NO:40/SEQ ID NO:42) variant 2:S14A/3:S15A (Ser14 of Saro_2872 and Ser15 of … (protein)
chain 1: MSALLYHGEPNGAALTVLAALAETGLDIECRRIDLLAGERHSLPGIVDPVALDLSIEGEGPVLVIDGEAMTESVFLAQYLDEAAGGVGLQPTDAYARWEMMMWCRQITERLSPAAALLGNLATSQSAIAAIPAEDFAILAARIVSDDLRERWQALNDDAVNAAQVADSETKVAAAVDRCEKQLGDGREWLMGTFSIADLVTYSWLAGMEPLRPAAFADAPLVKAWLARTAARPCVQAALARATISEPLRAWAPGPEINRWG
chain 2: MDEVSLYHWEPNANAGKPMLALMEKGVPFSSHYIDMLQFDQHKPEYLAINPQGTIPAMTHNGQVLTESTAIMEYVNDRFDGPDLMPADAQDRWRVRWWMKFMDQWLGPSFSMIGWSVFVGPMVRQRDPAELAAAIDRIPLPERRTAWRKAINGDFSESEMAESRRRVGLGIAKLEEELGKRPYVGSNQYSLADINIFNSTYSLPISQPDLAGKDRTPNIMRWLKRVYTREAVKKTWAMGKTDLAHRYGLIMAEIEG
notes: His8 tag removed by TEV
Km [8]: 120 ± 30 µM
kcat [8]: 2.8 ± 0.5 s⁻¹
kcat/Km [8]: 23000 ± 8000 M⁻¹ s⁻¹

B6: Novosphingobium aromaticivorans BaeA (Saro_2872/Saro_2873 heterodimer, SEQ ID NO:40/SEQ ID NO:42) variant 3:N14A (Asn14 of Saro_2873 to Ala) (Novosphingobium … (protein)
chain 1: B5 chain 1 with A14S
chain 2: B5 chain 2 with N14A, A15S
notes: His8 tag on Saro_2872 removed by TEV
Km [9]: 250 ± 60 µM
kcat [9]: 0.14 ± 0.02 s⁻¹
kcat/Km [9]: 500 ± 200 M⁻¹ s⁻¹
